These results are taken from US20230310596A1, “DRUG FOR TREATING TUMOR” (priority 2020, published 2023).

Where two headings read alike, the source gives them in different places.

The data set relates to MSI-H or dMMR endometrial cancer. The class given is in vivo, human. The method, then: Endometrial cancer subjects meeting inclusion criteria were first tested for MMR/MSI status by immunohistochemical or PCR methods, and then grouped according to the MSI-H/dMMR test results; for non-MSI-H/non-dMMR subjects, an anti-PD-L1 antibody and anlotinib hydrochloride (cohort I) were administered, while for MSI-H or dMMR subjects, an anti-PD-L1 antibody (cohort II) was administered, and for patients with disease under control (CR + PR + SD) and tolerable adverse reactions, the administration could be continued until clinical benefits were lost, until the toxicity was intolerable, until PD/iCPD was given by efficacy evaluation, or until the investigator deemed further medication inappropriate. Efficacy evaluations were performed every 6 weeks (42 days) ± 3 days, starting on day 1 of treatment cycle 1, and the efficacy evaluations were performed once every 12 weeks (84 days) ± 3 days after 54 weeks, until the subjects developed disease progression confirmed by oncologic imaging. 1) Histologically or cytologically confirmed unresectable recurrent or metastatic advanced endometrial cancer (previously received 1-2 lines of systemic standard chemotherapy and failed or was intolerant; preliminary neoadjuvant or adjuvant chemotherapy was allowed). 2) It was confirmed that there was at least one measurable lesion according to the Response Evaluation Criteria in Solid Tumors (RECIST 1.1). 3) Age: ≥18 years; ECOG PS scoring: 0-1; an expected survival time of more than 3 months. Anti-PD-L1 antibody injection hu5G11-hIgG1: 1200 mg of the anti-PD-L1 antibody injection (strength: 600 mg/20 mL) was diluted to 250 mL with normal saline, and the infusion time was 60 ± 10 min (from the beginning of the infusion of the anti-PD-L1 antibody injection until the end of the infusion of the anti-PD-L1 antibody injection and the completion of flushing the tube with normal saline (20 mL recommended)). The anti-PD-L1 antibody injection was administered on the first day, and once every 21 days, that is, 21 days were counted as a treatment cycle (d1/q3w). Safety evaluation criteria: the severity of adverse events was determined using the NCI-CTC AE 5.0 criteria. Effectiveness evaluation criteria: disease status was determined using RECIST 1.1, iRECIST criteria. RECIST 1.1 criteria were used as the primary criteria, and iRECIST criteria were used to confirm efficacy. That is, subjects determined to be disease progression (PD) according to RECIST 1.1 criteria were further confirmed according to iRECIST criteria to determine whether to take further medication observation. Primary endpoint: objective response rate (ORR) for IRC evaluation Secondary endpoint: (1) objective response rate (ORR), disease control rate (DCR), duration of response (DOR), progression-free survival (PFS), overall survival (OS), DOR rate (≥ 6 months), and the like evaluated by investigators; (2) the incidence and severity of adverse events (AEs) and serious adverse events (SAEs), and abnormal laboratory test indicators.

[1] abbreviates: cohort II, after at least 2 cycles of treatment.
[2] abbreviates: cohort II, after at least 2 cycles of treatment, listed as anti-PD-L1 antibody.

B1: Cohort II: anti-PD-L1 humanized monoclonal antibody hu5G11-hIgG1, prepared as described in WO2016022630, given as injection (antibody, V domains shown)
VH: QITLKESGPTLVKPTQTLTLTCTVSGFSLSTYGVHWIRQPPGKALEWLGVIWRGVTTDYNAAFMSRLTITKDNSKNQVVLTMNNMDPVDTATYYCARLGFYAMDYWGQGTLVTVSS
VL: DIQMTQSPSSLSASVGDRVTITCKASQSVSNDVAWYQQKPGKAPKLLIYYAANRYTGVPDRFSGSGYGTDFTFTISSLQPEDIATYFCQQDYTSPYTFGQGTKLEIK
modifications: hIgG1 constant regions; VH of hu5G11-hIgG1 and hu5G11-hIgG4; VL of hu5G11-hIgG1 and hu5G11-hIgG4
As to B1, the “best response CR, number of subjects” value (cohort II, MSI-H or dMMR subjects, after at least 2 cycles of treatment, RECIST 1.1/iRECIST, antibody 1200 mg d1/q3w) is reported as 0/6. In addition, under setting [1], the “DCR, number of subjects” value is reported as 3/6; the “ORR, number of subjects” value is “⅙”; the “best response CR, ratio” value is given as “(0.00%)”; the “best response PD, ratio” value is “(50.00%)”. Under setting [1], the “best response PR (partial response), number of subjects” value is “⅙”; the “best response PR, ratio” value is on record as “(16.67%)”; the “best response SD (stable disease), number of subjects” value is 2/6; the “best response SD, ratio” value was “(33.33%)”. Under setting [1], the “disease control rate (DCR)” value is given as “(50.00%)” and the “objective response rate (ORR)” value was “(16.67%)”. Moreover, under setting [2], the “disease control rate (DCR)” value came to 50.00% and the “objective response rate (ORR)” value stood at 16.67%. Moreover, under “human, in vivo”, the adverse reaction incidence stood at 67% and the “incidence of adverse reactions above grade 3” value was determined as 16%.
